In this assay the target is microtubules grown from purified bovine brain tubulin (bovine) (UniProt Q6B856). In words: laser trap (optical trap) rupture force assay; kinetochore particles on anti-His5 beads (7.5 nM Dsn1-His-Flag), placed at the ends of microtubules growing from coverslip-anchored seeds; BRB80 growth buffer with 1 mM GTP, 1.5 mg/mL tubulin; force ramp 0.25 pN/s; 23°C.
Chain of UniProt Q6B856 (Q6B856 whole entry, looked up): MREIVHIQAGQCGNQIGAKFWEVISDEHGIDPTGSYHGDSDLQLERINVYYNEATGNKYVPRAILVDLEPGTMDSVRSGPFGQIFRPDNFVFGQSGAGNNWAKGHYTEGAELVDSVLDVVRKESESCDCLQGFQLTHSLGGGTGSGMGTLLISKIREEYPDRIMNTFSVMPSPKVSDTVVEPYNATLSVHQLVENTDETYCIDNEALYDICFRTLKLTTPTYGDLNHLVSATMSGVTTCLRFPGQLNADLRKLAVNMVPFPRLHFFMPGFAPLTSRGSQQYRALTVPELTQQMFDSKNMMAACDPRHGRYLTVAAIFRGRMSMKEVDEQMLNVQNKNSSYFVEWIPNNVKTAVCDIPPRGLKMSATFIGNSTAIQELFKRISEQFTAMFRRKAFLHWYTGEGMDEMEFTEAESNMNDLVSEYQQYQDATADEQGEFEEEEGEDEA

In the case of “Wild-type kinetochore particles from mitotic metaphase cells (from UniProt P40568 1-576) (complex)”, the mean rupture force stood at 9 pN.
Regarding “Wild-type meiotic metaphase I kinetochore particles (from UniProt P40568 1-576) (complex)”, the mean rupture force worked out at 12 pN.

The values are drawn from publication PMC7846277.
